Measured values taken from US20210015937A1 (CRESCENDO BIOLOGICS, published 2021).

Assays:
[1] = target: T1, human LAG-3 expressed on cells (human, UniProt P18627 23-525); assay: cell-based or functional assay
T1 sequence: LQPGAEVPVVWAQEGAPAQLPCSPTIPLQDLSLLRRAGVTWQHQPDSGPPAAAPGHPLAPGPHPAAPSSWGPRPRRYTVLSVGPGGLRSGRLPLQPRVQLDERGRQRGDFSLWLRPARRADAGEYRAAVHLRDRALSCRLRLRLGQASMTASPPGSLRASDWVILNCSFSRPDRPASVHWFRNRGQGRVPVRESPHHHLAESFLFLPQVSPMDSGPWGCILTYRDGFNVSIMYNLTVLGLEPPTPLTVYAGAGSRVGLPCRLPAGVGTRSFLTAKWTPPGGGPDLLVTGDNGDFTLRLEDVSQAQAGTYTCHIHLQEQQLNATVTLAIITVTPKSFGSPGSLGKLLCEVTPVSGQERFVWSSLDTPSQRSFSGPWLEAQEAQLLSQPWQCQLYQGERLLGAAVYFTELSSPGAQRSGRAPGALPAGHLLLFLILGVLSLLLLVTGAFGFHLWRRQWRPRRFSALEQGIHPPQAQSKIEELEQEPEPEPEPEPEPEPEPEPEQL

[2] = target: T2, recombinant human LAG-3-Fc (human, UniProt P18627 23-450); assay: ELISA, coated antigen, VH at 10 µg/ml, anti-HIS HRP
T2 construct: also called human LAG-3 (R&D Systems cat no. 2319-L3); LAG3 antigen
T2 sequence: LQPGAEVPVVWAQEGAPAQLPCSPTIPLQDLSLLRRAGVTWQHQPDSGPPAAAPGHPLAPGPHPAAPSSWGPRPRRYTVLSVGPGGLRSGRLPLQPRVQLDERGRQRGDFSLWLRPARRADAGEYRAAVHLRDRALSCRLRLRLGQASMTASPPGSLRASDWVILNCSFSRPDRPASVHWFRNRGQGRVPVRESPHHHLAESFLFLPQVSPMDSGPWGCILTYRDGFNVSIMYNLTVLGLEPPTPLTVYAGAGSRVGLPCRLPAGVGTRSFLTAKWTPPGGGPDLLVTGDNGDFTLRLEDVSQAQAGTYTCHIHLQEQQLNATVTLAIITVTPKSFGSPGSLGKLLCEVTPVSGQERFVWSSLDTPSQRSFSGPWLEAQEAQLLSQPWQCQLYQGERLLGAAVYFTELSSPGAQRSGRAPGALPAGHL
Experimental: (§1) To screen specificity by ELISA, antigens were coated at 1-5 ug/ml and blocked with Marvel milk powder. VH were added at 10 μg/ml and incubated for 1 hour. After washing, HRP-conjugated anti-HIS antibody (Miltenyi cat no. 130-092-785) was added. TMB substrate and acidic solution were used to develop colorimetric signal.

[3] = target: T3, human LAG-3 domains 1-2-Fc (human, UniProt P18627 23-261, limits assumed); assay: as above
T3 construct: Domains were identified as per Huard et al 1997 PNAS 94:5744-9; also called truncated LAG-3
T3 sequence: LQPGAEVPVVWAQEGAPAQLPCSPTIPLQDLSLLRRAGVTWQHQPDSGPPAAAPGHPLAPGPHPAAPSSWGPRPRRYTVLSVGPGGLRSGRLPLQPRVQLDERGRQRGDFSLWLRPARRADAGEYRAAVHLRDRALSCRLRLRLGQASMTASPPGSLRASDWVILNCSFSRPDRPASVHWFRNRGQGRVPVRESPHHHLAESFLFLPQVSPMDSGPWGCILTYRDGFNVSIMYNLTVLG
Experimental: as §1

[4] = target: T4, Rhesus monkey LAG-3 (used as cynomolgus LAG-3) (Rhesus monkey (called cynomolgus in the …)); assay: as above
T4 construct: extracellular domain
Experimental: as §1

[5] = target: T2, recombinant human LAG-3-Fc; assay: BLI (Octet); human LAG-3-Fc captured on protein G biosensors, 1:1 fit
[6] = target: T5, recombinant human PD-1 Fc chimera (human, UniProt Q15116 25-167); assay: Octet bio-layer interferometry; VH (100 nM) first bound to immobilised LAG3-Fc, then PD-1-Fc added
T5 construct: Bought Fc chimera; also called human PD-1 (R&D systems cat no. 1086-PD); PD1 antigen
Experimental: Recombinant LAGS-Fc (10 μg/ml) was immobilised by standard amine coupling to amine reactive biosensors in 10 mM sodium acetate at pH6. The binding steps were performed in 0.1% BSA 0.02% Tween20 in PBS. 100 nM of Humabody® were used in the first binding step, followed by binding of human PD1-Fc at 5 μg/ml. The contact time for association and dissociation was 200 seconds.

T5 sequence (Q15116 25-167 limits assumed, change not shown): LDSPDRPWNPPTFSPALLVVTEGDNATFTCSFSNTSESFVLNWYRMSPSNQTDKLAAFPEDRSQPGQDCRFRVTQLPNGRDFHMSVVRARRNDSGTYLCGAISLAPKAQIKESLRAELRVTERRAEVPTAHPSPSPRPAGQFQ

EC50 (M), NFAT-Luciferase Reporter Gene assay (LAG-3:MHCII) [1]: 4.1e-09 M
ELISA signal over background [2]: > 10 fold over background
ELISA signal over background [3]: > 10 fold over background
ELISA signal over background [4]: > 10 fold over background
Kd [5]: 0.417 nM
koff [5]: 0.00047 s⁻¹
kon [5]: 1.13e+06 M⁻¹ s⁻¹
binding result [6]: no binding
B1: VH1.1-6GS-VH1.1-His6 (VHH)
chain: EVQLVESGGGVVRPGGSLRLSCSASGFTFDDYGMSWVRQAPGKGLEWVSGIHWNGGNSGYADSVKGRFTISRDNAKNSLYLQMNSLRAEDTALYYCARIPREDCSSASCYTDAIDFWGPGTMVTVSSGGGGSGGGGSGGGGSGGGGSGGGGSGGGGSEVQLVESGGGVVRPGGSLRLSCSASGFTFDDYGMSWVRQAPGKGLEWVSGIHWNGGNSGYADSVKGRFTISRDNAKNSLYLQMNSLRAEDTALYYCARIPREDCSSASCYTDAIDFWGPGTMVTVSSAAAHHHHHH
notes: Tandem fusion of two VH 1.1, bivalent for LAG-3; The entry includes the C-terminal AAA-His6; also called 1.1-6GS-1.1; bivalent 1.1-6GS-1.1
